Our source for the Kd and koff values is paper doi:10.1101/2025.01.10.632391.

This assay addresses angiopoietin-like 6 (ANGPTL6) (UniProt Q8NI99). Description: SPR.

As a reminder, the Kd is the free concentration of one partner at which half of the binding sites on the other are occupied at equilibrium, for simple one-to-one binding. One may read the koff as the rate constant with which the complex falls apart. A higher koff goes with fast dissociation.

Sequence of UniProt Q8NI99 (Q8NI99 21-470): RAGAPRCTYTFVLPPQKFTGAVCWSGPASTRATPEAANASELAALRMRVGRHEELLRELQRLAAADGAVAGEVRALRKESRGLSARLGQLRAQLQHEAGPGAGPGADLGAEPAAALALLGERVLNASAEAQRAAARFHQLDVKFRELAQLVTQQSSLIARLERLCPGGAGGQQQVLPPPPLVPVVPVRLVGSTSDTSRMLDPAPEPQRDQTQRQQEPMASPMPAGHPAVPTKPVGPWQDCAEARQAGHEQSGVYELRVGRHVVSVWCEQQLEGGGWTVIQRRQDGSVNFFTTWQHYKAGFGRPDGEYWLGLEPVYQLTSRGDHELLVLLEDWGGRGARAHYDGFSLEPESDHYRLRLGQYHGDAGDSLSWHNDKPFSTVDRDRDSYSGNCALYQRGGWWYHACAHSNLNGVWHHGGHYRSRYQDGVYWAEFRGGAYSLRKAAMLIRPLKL

As to “αVβ5 integrin (from UniProt P06756 31-1048; P18084 24-719) (complex)”, the Kd was 13 nM and the koff amounted to 0.0012 s⁻¹.
